We go through seven molecules from patent US20250152746A1, “BASE EDITING OF ANGPTL3 AND METHODS OF USING SAME FOR TREATMENT OF DISEASE” (Verve Therapeutics, Inc., priority 2020, published 2025).

Data set [1] deals with PCSK9 gene. The data set is described as follows: PCSK9 gRNA/SpCas9 editing in primary human hepatocytes (Tables 2, 4). The settings on record: SpCas9 mRNA MS002 1:1 by weight; for Human Primary Hepatocyte Editing % 100: 100 ng/RNA/mL; for Human Primary Hepatocyte Editing % 500: 500 ng/RNA/mL; for Human Primary Hepatocyte Editing % 2500: 2500 ng/RNA/mL. The format is cell-based. In outline:
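Editing at the PCSK9 site quantified by NGS of PCR amplicons from genomic DNA. Input: SpCas9 mRNA with gRNA, 1:1 by weight, transfected into primary human hepatocytes at 2500, 500 or 100 ng RNA/mL (tracr-modified guides at 2500, 1250, 500, 250 ng/mL).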

Data set [2] concerns PCSK9 gene. As to the kind of experiment: PCSK9 gRNA/SpCas9 editing in primary cynomolgus hepatocytes (Tables 2, 22). In kind it is cell-based, cynomolgus monkey. Particulars: SpCas9 mRNA MS002 1:1 by weight; for Cyno Primary Hepatocyte Editing % 100: 100 ng/RNA/mL; for Cyno Primary Hepatocyte Editing % 500: 500 ng/RNA/mL; for Cyno Primary Hepatocyte Editing % 2500: 2500 ng/RNA/mL.

The test system of data set [3] is PCSK9 gene splice site. The format is cell-based, human. As to the method:
PCSK9 gRNAs were co-transfected with an equivalent amount of in vitro transcribed ABE8.8 mRNA MA002 (1:1 ratio by weight) into primary hepatocytes and processed as described in detailed methods. In one set of experiments, extracted genomic DNA was analyzed for base editing of the target splice site with next-generation sequencing of PCR amplicons generated around the target sites. Samples were prepared using the Nextera XT DNA library preparation kit (Illumina) according to the manufacturer's protocol. Briefly, two rounds of PCR were performed first to amplify the region of interest and second to add DNA sequences required for next generation sequencing and sample identification to the initial product. The final amplicon was sequenced on the Illumina MiSeq instrument according to the manufacturer's protocol.
Similarly, three gRNAs (GA098, GA099, GA100) were synthesized matching the 5′-[…]-3′ (SEQ ID NO: 15) (GA091) human protospacer sequence, as well as four gRNAs (GA067/GA101, GA102, GA103, GA347) matching the 5′-[…]-3′ (SEQ ID NO: 14) (GA067) cynomolgus protospacer sequence, but with more extensive chemical modifications of various kinds (Table 1). GA066 and GA095 contain the same chemical composition and modification pattern, as do GA067 and GA101 with one another. […] Each of the gRNAs described in Table 8, with an equivalent amount of in vitro transcribed ABE8.8 mRNA MA002 (1:1 ratio by weight), were co-transfected into primary human hepatocytes and primary cynomolgus hepatocytes via MessengerMax reagent, using various dilutions to assess for editing activity at different concentrations of test article. Three days after transfection, genomic DNA was harvested from the hepatocytes, and then assessed for base editing of the target splice site with next-generation sequencing.
Modifications and/or truncations to either the spacer or tracr portion of the gRNA was assessed by alteration of the GA066 spacer (5′-[…]-3′ (SEQ ID NO: 13)) (Table 12). […] Each of the gRNAs with an equivalent amount of in vitro transcribed ABE8.8 mRNA (1:1 ratio by weight) were co-transfected into primary human hepatocytes and primary cynomolgus hepatocytes and processed as described in detailed methods. […]

In the oligonucleotide strings, read from the 5' end, every base follows the letter of its sugar. An asterisk marks phosphorothioate; unmarked linkages are phosphodiester. Other units and linkages are bracketed, terminal groups are in braces. A string of capitals states the bases alone. m = 2'-O-methyl; r = 2'-OH (RNA)

B1: GA185: PCSK9 gRNA; protospacer AGACATGCAGGATCTTGGTG (SEQ ID NO: 179) (nucleic acid)
guide: mA*mG*mA*rCrArUrGrCrArGrGrArUrCrUrUrGrGrUrGrGrUrUrUrUrArGrArGrCrUrArGrArArArUrArGrCrArArGrUrUrArArArArUrArArGrGrCrUrArGrUrCrCrGrUrUrArUrCrArArCrUrUrGrArArArArArGrUrGrGrCrArCrCrGrArGrUrCrGrGrUrGrCrU*mU*mU*mU
Turning to B1, in data set [1], the “Human Primary Hepatocyte Editing % 100” value was found to be 1.6%, the “Human Primary Hepatocyte Editing % 500” value was determined as 10.91% and the “Human Primary Hepatocyte Editing % 2500” value was 27.98%. Besides, in data set [2], the “Cyno Primary Hepatocyte Editing % 100” value was 1.14%, the “Cyno Primary Hepatocyte Editing % 500” value came to 7.75% and the “Cyno Primary Hepatocyte Editing % 2500” value came to 20.29%.

B2: GA085: PCSK9 gRNA for ABE8.8 splice site editing, Human/Cyno (nucleic acid)
guide: GCCTCTTCACCTGCTCCTGAGTTTTAGAGCTAGAAATAGCAAGTTAAAATAAGGCTAGTCCGTTATCAACTTGAAAAAGTGGCACCGAGTCGGTGCTTTT
modifications: listed as RNA; modified_base 1: mod_base = OTHER; note = 2'-O-Methyl-guanosine phosphorothioate; modified_base 2: mod_base = OTHER; note = 2'-O-Methyl-cytidine phosphorothioate; modified_b
notes: PCSK9 gRNA for ABE8.8 splice site editing, Human/Cyno
Consider B2, for which, in data set [3], the “Human Primary Hepatocytes-splice site editing % 1250 ng/mL” value worked out at 1.2%, the “Human Primary Hepatocytes-splice site editing % 2500 ng/mL” value was 1.8% and the “Human Primary Hepatocytes-splice site editing % 5000 ng/mL” value is given as 2.4%.

B3: GA089: PCSK9 gRNA for ABE8.8 splice site editing, Human/Cyno (nucleic acid)
guide: CCCCAGGCTGCAGCTCCCACGTTTTAGAGCTAGAAATAGCAAGTTAAAATAAGGCTAGTCCGTTATCAACTTGAAAAAGTGGCACCGAGTCGGTGCTTTT
modifications: 2'-O-methyl at 1, 2, other sugars and backbone not given here; further chemistry not fully specified
notes: as for B2
For the molecule B3, in data set [3], the “Human Primary Hepatocytes-splice site editing % 1250 ng/mL” value was determined as 5.4%, the “Human Primary Hepatocytes-splice site editing % 2500 ng/mL” value was 14.1% and the “Human Primary Hepatocytes-splice site editing % 5000 ng/mL” value came to 18.1%.

B4: GA182: PCSK9 gRNA; protospacer CACCTACGTGGTGGTGCTGA (SEQ ID NO: 176) (nucleic acid)
guide: mC*mA*mC*rCrUrArCrGrUrGrGrUrGrGrUrGrCrUrGrArGrUrUrUrUrArGrArGrCrUrArGrArArArUrArGrCrArArGrUrUrArArArArUrArArGrGrCrUrArGrUrCrCrGrUrUrArUrCrArArCrUrUrGrArArArArArGrUrGrGrCrArCrCrGrArGrUrCrGrGrUrGrCrU*mU*mU*mU
In the case of B4, in data set [1], the “Human Primary Hepatocyte Editing % 100” value is recorded as 0.95%, the “Human Primary Hepatocyte Editing % 500” value is listed as 4.49% and the “Human Primary Hepatocyte Editing % 2500” value came to 17.44%. Besides, in data set [2], the “Cyno Primary Hepatocyte Editing % 100” value was determined as 1.55%, the “Cyno Primary Hepatocyte Editing % 500” value is 6.14% and the “Cyno Primary Hepatocyte Editing % 2500” value worked out at 22.89%.

B5: GA082: PCSK9 gRNA for ABE8.8 splice site editing, Human/Cyno (nucleic acid)
guide: CTTACCTGCCCCATGGGTGCGTTTTAGAGCTAGAAATAGCAAGTTAAAATAAGGCTAGTCCGTTATCAACTTGAAAAAGTGGCACCGAGTCGGTGCTTTT
modifications: listed as RNA; modified_base 1: mod_base = OTHER; note = 2'-O-Methyl-cytidine phosphorothioate; modified_base 2: mod_base = OTHER; note = 2'-O-Methyl-uridine phosphorothioate; modified_bas
notes: as for B2
B5: in data set [3], the “Human Primary Hepatocytes-splice site editing % 1250 ng/mL” value was found to be 5.6%, the “Human Primary Hepatocytes-splice site editing % 2500 ng/mL” value turned out to be 9.6% and the “Human Primary Hepatocytes-splice site editing % 5000 ng/mL” value is given as 9.8%.

B6: GA086: PCSK9 gRNA for ABE8.8 splice site editing, Human/Cyno (nucleic acid)
guide: TTCACCTGCTCCTGAGGGGCGTTTTAGAGCTAGAAATAGCAAGTTAAAATAAGGCTAGTCCGTTATCAACTTGAAAAAGTGGCACCGAGTCGGTGCTTTT
modifications: listed as RNA; modified_base 1: mod_base = OTHER; note = 2'-O-Methyl-uridine phosphorothioate; modified_base 2: mod_base = OTHER; modified_base
notes: as for B2
On to B6, for which, in data set [3], the “Human Primary Hepatocytes-splice site editing % 1250 ng/mL” value is reported as 2.9%, the “Human Primary Hepatocytes-splice site editing % 2500 ng/mL” value stood at 4.9% and the “Human Primary Hepatocytes-splice site editing % 5000 ng/mL” value was determined as 5.7%.

B7: GA183: PCSK9 gRNA; protospacer CTACGTGGTGGTGCTGAAGG (SEQ ID NO: 177) (nucleic acid)
guide: mC*mU*mA*rCrGrUrGrGrUrGrGrUrGrCrUrGrArArGrGrGrUrUrUrUrArGrArGrCrUrArGrArArArUrArGrCrArArGrUrUrArArArArUrArArGrGrCrUrArGrUrCrCrGrUrUrArUrCrArArCrUrUrGrArArArArArGrUrGrGrCrArCrCrGrArGrUrCrGrGrUrGrCrU*mU*mU*mU
For the molecule B7, in data set [1], the “Human Primary Hepatocyte Editing % 100” value was 2.21%, the “Human Primary Hepatocyte Editing % 500” value worked out at 9.89% and the “Human Primary Hepatocyte Editing % 2500” value turned out to be 32.35%. Further, in data set [2], the “Cyno Primary Hepatocyte Editing % 100” value is reported as 2.87%, the “Cyno Primary Hepatocyte Editing % 500” value was 15.99% and the “Cyno Primary Hepatocyte Editing % 2500” value is reported as 39.56%.
